Results on 14 sequences are retold here after a protein production outcome set (Wang et al. 2014).

The nature of this data set: label from the status in PepcDB records.
For “MKRCDRMNYREEYEKKLISPEEAAGLVESGMHIELGGAANTALIIDKYLAKRKDELENVKVGTFIDLAHYEFLKADPNGEVFEWSSGFLYRPVRKTSKELGPCVFRPNLYHDVPKIVREFSKDYDPIDIAYLVTTPMDKHGYFNFGLTCSHMKALAEVAEKVVVVVKENMPWVNGGYDECIHISEVDYIVEDNEMPVPFIPFSIPPTKEDEMIAENILNAETKDGRKLIQDGSTLQVGIGGLPDTVVKMLKEGGYKNLGVHTEMMGDGTLELIEEGVVTNDQKRLDRGKSVFTFALGSLKLYEYLDRNPEVATYPVDYTNDPFIIAQQPKMFSLNQAAEADLMGQINSEQMGLISPTGKLYQVSGTGGQLDFVMGCLFSRDRQGFSILAMYSTHNGTSRIKPILPPGAAVTVPRSMVQVVATEWGVAYLKGLTVKERAIAMIHLAHPDHREWLEKEAEKLGLLPPNYTIPAGKPDYLLYKRDLEHHHHHH”, the protein production result is “not failed”. The entry for “MKRFARKETIYLRGEEARTLYRLEEGLVRVVELLPDGRLITLRHVLPGDYFGEEALEGKAYRYTAEAMTEAVVQGLEPRAMDHEALHRVARNLARQMRRVQAYEAHLQTGELRARIARYLLFLADTPLSARDRQGIYVTVSHEEIADATASIRESVSKVLADLRREGLIATAYRRVYLLDLAALEREAGSALEAA” is “not failed”.

Regarding “MKRFPGRDMRSLTELVLGRDKFRTALCCSVVGMLLTLLFLSSCHYTRPDLTSEELSEKTKDSLNYLYDRHYTWNTNLEVTTDSVTMECLPIKDTYIALYKGDRVVVAEFAIHPADSVDSVWVKLAHTQEEQGWIRETELKESFVPTDSISQAIHFFSDTHASYFMIIFALFVGVYLFRAFRRKQLQLVYFNDIDSVYPLFLCLLMAFSATVYESMQVFVPDTWEHFYFNPTLSPFKVPFILSVFLLSIWLFLIVALAVLDDLFRQLTPAAAVFYLLGLMSSCIFCYFFFILMTHIYIGYLFLAFFIWVFAKKVHRNISYKYRCGHCGEKLKEKGICPHCGAINE”, the protein production result is reported as “failed”. Turning to “MKRHYIFASHGSFANGLLNSVELILGKQPDIHTLCAYVEEEVDLTQQVEALVARFPAQDELIVITDIFAGSVNNEFVRFLSRPHFHLLSGLNLPLIIDLLISAAEDNTEKLITEALTNAKESIQYCNQTIASAMTMDKDF”, the protein production entry is listed as “not failed”. On to “MKRKISSIIVVGIMLFQSLTMYPFITEAKENEQKEEINKPSKITKGLTNSLKYTKTILETGDTYDSVFPDSALAKVVAKEATGSENTTQLVTQADLNKIKSLNGYNKGISVLTGIDLLVNVTSISLNNNQVTDISPIDQLPNLVSLSVKNNQISSLILNAQNQLPKLTTIDIENNPDLNTIDIQDQPQLVDVKTSGYTGLRKLTTVIAKNNPELVNLGQYTIRNVYFSQVASLTKVELVNLPKVRKVNLERNSINELKVTDLAIEDLPLEENELTDTVFDNIQNLPNLKTLDLSKNQLEEVVLDKTDVENLPNLMTLDIQQNLAIKLINVQDQPQLVDVKTSDYKELSALTTVIAKNNPELVNLGQYTIRNVYFSQVASLTKVELVNLPKVRKVNLERNSINELKVTDLAIEDLPLEENELTDTVFDNIQNLPNLKTLDLSKNQLEEVVLDKTDVENLPNLMTLDIQQNLAIKLINVQDQPQLVDVKTSDYKELSALTTVIAKNNPELVNLGYPIMQNVYFSQVASLTKVELANLPKVRAVRLERNSINQIELNNLVSVKDVNLNTNKITNDSIEKFRGMPILATLNLNKNQITNINMLDGFPQMTTLNIDLNSISVLPSNLKTKMPKLSRISALNQTVTLGKAIVVDDSDLIINNEISNFEKLTEPSPISNFGTYANEKITWSSERIKNLTEVSFQFSELINVTGIDGTFSGKVTQPFKRSTTPVINADSEIHYPQGTEKTEAEFLKDVQAQTTDDLAIKSDFETMVNLKKVGKYTVTLNVENLDGIKATPKEVIVYIDAVQGANITVKYEDESGNKLAENSILTGNVGEEYSSSAKEILGYTLTEMPSNAQGEFSLEEQTVTYIYSKNPVPAKDITVQYTDEDGMELAPTETLSGNVDENYVTTAKTFTGYELIETPSNAEGKFSENAQTVTYVYRAIKAEPILAKEVTVNYQDELGAKISETEVLTGEIGETYTTVAKTIDGYTLIKSPTNANGIFNENPQTVTYVYQLQNSPIAANITVKHLDENNNELAPSEVLSGNVDEAYTTKPKEIKDYSLVKVPTNASGKFTTEAQTVIYHYKKNSIPTSSYITVKYVDETGKELAISKVLNGNINDSYATTAKEIKGYTLVQKPANATGKFTDQNQTIKYVYRANKAEVNPNPNSDVLGSNSNGDIQPTNDIKPTNDVQPTNEAPQTLPKTGSQPANLIFGLGILLVLLSTQWLHRNKRKKAKSHNC”, for which the protein production result is reported as “failed”. For “MKRKKPTIHDVAAKAGVGLGTVSRVLNDHPAVRHETRARVLRAMEELGYAPNPHARRIAGGRSYTVSVLLPFVATEFYRRLVEGIEGVLLEQRYDLALFPILSLARLKRYLENTTLAYLTDGLILASYDLTERFEEGRLPTERPVVLVDAQNPRYDSVYLDNRLGGRLAGAYLARFPGPIFAIAVEEEPDRAFRRTVFAERMAGFQEALKEAGRPFSPDRLYITRHSQEGGRLALRHFLEKASPPLNVFAGADQV” the value was “not failed”; for “MKRKTLLMAALMGGCSLQGMAQQITPKDVAGDKEYNRVCREYELKGGDSMELLQAYLDKYPDSRHKNRVLSLIASAYFMEGKYKEAIALFRSCDLEALPDKERDDCAMRLATSYLKEDNLREAAVWFTLLKEVSPLYQDDAVYNLAYIDYVEKRYDKALKSFQSLQNDAVYAALVPYYIGEIYLVKGNYQQARTVAKAYLEQYPAKKDVPQMERIWGEACFGLNDYQAAIPPLERYRESVSHPQRKPLYELGMSYYYTGVYSKAAATLGEMASVHDALSQNAYLHMGLAYLNLKERNRARMAFEQAANFSFDPKVKEQALYNYALCIHETSYSPFAESVTVFERFLNEFPNSPYTERVNDYLIEVYMNTRSYEAALKSIAKIEHPGTRIMEAKQKILFRLGTQAFANARFQEALEFFNQSLAVGQYNQATKADAYFWRGESNYRLDRFPQAGNDYRLYLEFATSKNGQEYGLALYNLGYTYFKQKNYGNAGTWFTRFVDRGSINERTMQADAYNRIGDCNFYDRRFEQARQDYARAVEIDPSLGDYSLYQEAFVRGLQRDYNGKVQTLNRLISDYPESQYMDDALYEQGRAFVQMEDNANAIARFNILVKKFPESNVARRAANEIGLLYYQDDKYPEAIQAYKQVIAGYPGSEEARLAQRDLKSIYIDLNKVDEYANFASTIPGGANFDVNERDSLTYVAAERVYMRGEVAEARNSFTRYLQTFPEGAFSLNANYYIGLIDYNQKAYESAARHLDKVLEYPNNKYSEDAMLMGAEMAYTAKDYEKALHIYKQLKDKAASMERRRLAKTGMLRSAHMLGNEEEIIFAATDLLADTKLAPELSNEAHYYRAKAYLDAGKTDGAMEDLKVLAKDTRNVYGAEAKYKVAQIYFDGGQTDKAEQEVLNYIEVSTPHTYWLARSFVLLADVYMKLGRNLDAKQYLLSLKQNYQADDDIAGMIESRLEKLKTEN”, “failed”; for “MKRLFIASLLAFAPFTWALDQAGSQRLSDLQQRWAQIQYQMPKDKRADAFEKLAGDAATFVRQYPGTPEPLIWEGIINSSWAGATGGLGALGKVKAAKASLEQAMKLDPAALQGSAYTSLGTLYDQVPGWPIGFGDAEMADKMLRKALQINPNGIDSNYFWADHLYRQKRYPEATAALQKALQAPPRPGRELADQGRRADIDALLKTIKDKQD”, “failed”. For “MKRNNKSAIALIALSLLALSSGAAFAGHHWGNNDGMWQQGGSPLTTEQQATAQKIYDDYYTQTSALRQQLISKRYEYNALLTASSPDTAKINAVAKEMESLGQKLDEQRVKRDVAMAQAGIPRGAGMGYGGCGGYGGGYHRGGGHMGMGNW” the value was “not failed”. For the sequence “MKRPRGKPLFKPVKERNPVAVGVAGLLVLTLVALLVYNVDRLPFGGGTTYSADFSESAGLDEGDEVRIAGVKVGQVTGVALDGAKVKVSFEVEDAWIGDRTTAAIAIKTVLGDKYLALDPLGSGRQDPGARIPLARTTSPYDVTQAFQDLSGTVDDIDTGRLAESFETISDTFKDSPPHVRKAATGLSDLSKSISKRDAKLSELLKGSARFTKTLENNKSSFETLIEDGGPLLGELRDRRTAINALLKGSQDLGTELGGLVKDNEKQLGPTLKALGRVTSVLEKNNTRLGETLALVGPYYRLVGNTLGNGRWFDSYLCGVVPRDYLPETSQPSTGCLPPKQPAAAQGSGARLEHHHHHH”, the protein production result is given as “failed”. For “MKRSCMPARSNRNRINSALRGQLLRYLLNGLVATAVHYTILRFTLEVLGLHSAGLANGIAAIFGIIVSFIGNRYFVFRIVQVPLAKQALLFILTYFCIALIHTCILYFWTDVYNLNYTLGFLMATAMQVVFSFFSNKFMVFK” the value was “failed”; for “MKRSSLLVRMVISIFLVFLILLALVGTFYYQSSSSAIEATIEGNSQTTISQTSHFIQSYIKKLETTSTGLTQQTDVLAYAENPSQDKVEGIRDLFLTILKSDKDLKTVVLVTKSGQVISTDDSVQMKTSSDMMAEDWYQKAIHQGAMPVLTPARKSDSQWVISVTQELVDAKGANLGVLRLDISYETLEAYLNQLQLGQQGFAFIINENHEFVYHPQHTVYSSSSKMEAMKPYIDTGQGYTPGHKSYVSQEKIAGTDWTVLGVSSLEKLDQVRSQLLWTLLGASVTSLLVCLCLVWFSLKRWIAPLKDLRETMLEIASGAQNLRAKEVGAYELREVTRQFNAMLDQIDQLMVAIRSQEETTRQYQLQALSSQINPHFLYNTLDTIIWMAEFHDSQRVVQVTKSLATYFRLALNQGKDLICLSDEINHVRQYLFIQKQRYGDKLEYEINENVAFDNLVLPKLVLQPLVENALYHGIKEKEGQGHIKLSVQKQDSGLVIRIEDDGVGFQDAGDSSQSQLKRGGVGLQNVDQRLKLHFGANYHMKIDSRPQKGTKVEIYINRIETS”, “failed”. As to “MKRSTEFLKSLDVKLILILLALCVTSIAAIYSSQQTGQYGESNFAMKQGLNYIIGVVLLLLVASIDLDQLQKLSWPLYIVGFASLILLKILPVSTFTPEKLGAKRWFVFPLVGQIQPSEFFKISLLLVVASIAVKHNAQYMARTFQTDLKLVGKIVLVSLPPIAVVYSQPDTGMVFLYAAAIACILFMSGIQKKLIALCTVIPVTILSTLIFIYVRYEDFFFNKLVTLLKPHQQSRILGWLDPFEHTDQGYQTQQSILAVGSGGMEGKGFGEGNVYIPEKHTDFIFATIAEEGGFIVAALVVFLFLLLLYRTIIIGYSADNLFGTLLCAGSIGILTVQIFQNIGMIVGLMPVKGIALPFLSYGGSSLFSNMIMMGLILSVRKTYKKYMFSVK”, the protein production result is “failed”. For “MKRVPWVVGGLILIMAYNAALGTLAYWQRRDIIDESLREAVVVADILVREVEANLDRIDRTLSGLTEVLRAYPSAIDVHDPFTHRLLLRRHAITPSLAALFLIGGDGRLRNASLTDKVSEIDVSGEDYFAFHLSNVDDEFFIGAVTTNRLDKSWVIPVSRAVRDSFGRLTGVVAATITTDSIDQMIHSHQLSEGFAVTITQRDAGMIGCLGFTRCWGEGAPHRGDEGLAESGGSGEEVHYLPNGPGVGAFLRGPTYGVEVTVQASDRTLLQPWREKLAFILVLQVFGTLGLGFGITSLYYQMHHRRVSLLDLERANASLESKVAERTRQLAEGEERMRGFIMAARDAVVIIDQKGIISEFNPSATELFGYDVEEVRGQSVNMLMPATYARDHDGHLRKGKPSGQRAIGRGREMIGRRKNGSEFPIELTVGTQSFDGTRVHIGVIRDITERKATEETLRRLANIDGLTGVLNRRSFTEESELLLSLANRHGRRLSMMIVDADHFKGVNDTYGHDAGDRVLKALTGEIAGVLRKTDLLGRIGGEEFAILLPETDQEGAEGLAWRVVLAIRALEVPLPEGGVLKVTVSVGVSCRNTEAATFDWMLKEADTALYAAKHGGRDRVACFGQTQSVARS” the value was “failed”.
